Test results reported in patent US20120165340.

Target: FLAG-HA-PTEN (UniProt P60484)
Sequence (P60484 whole entry): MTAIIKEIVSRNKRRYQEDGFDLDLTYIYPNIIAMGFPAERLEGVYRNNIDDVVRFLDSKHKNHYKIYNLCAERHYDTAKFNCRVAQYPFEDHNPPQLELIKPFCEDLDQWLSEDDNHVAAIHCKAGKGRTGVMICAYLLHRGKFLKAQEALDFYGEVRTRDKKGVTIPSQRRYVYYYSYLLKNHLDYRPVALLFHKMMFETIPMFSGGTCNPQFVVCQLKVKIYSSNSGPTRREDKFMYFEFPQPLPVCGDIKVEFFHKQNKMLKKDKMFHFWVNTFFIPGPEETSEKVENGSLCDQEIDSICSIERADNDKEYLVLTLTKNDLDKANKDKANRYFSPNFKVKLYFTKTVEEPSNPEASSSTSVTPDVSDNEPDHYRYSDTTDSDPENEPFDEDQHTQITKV

c-src was tested. Which “tyrosine phosphorylation of PTEN (Western blot with 4G10 and anti-pY240, FIG. 15)” value did it give?
The value was “although src and lyn both phosphorylate PTEN on tyrosine, the phosphorylation of Y240 is much greater in the presence of lyn than when src is expressed with PTEN”.

What about the “tyrosine phosphorylation sites on PTEN identified by mass spectrometry” value of the same substance?
The value was “We identified four sites of tyrosine phosphorylation in the PTEN phosphatase domain (Y46, Y68, Y155 and Y174) and two sites in the PTEN C2 domain (Y240 and Y315)”.
